Experimental data: US20250376519A1 (JIANGSU HENGRUI PHARMACEUTICALS, published 2025)

T1: cynomolgus monkey DLL3 on CHO-s cells (cynomolgus monkey, UniProt Q9NYJ7 27-618 (human entry))
T1 construct: also called cynoDLL3/CHO-s; CynoDLL3/CHO-S
T1 chain: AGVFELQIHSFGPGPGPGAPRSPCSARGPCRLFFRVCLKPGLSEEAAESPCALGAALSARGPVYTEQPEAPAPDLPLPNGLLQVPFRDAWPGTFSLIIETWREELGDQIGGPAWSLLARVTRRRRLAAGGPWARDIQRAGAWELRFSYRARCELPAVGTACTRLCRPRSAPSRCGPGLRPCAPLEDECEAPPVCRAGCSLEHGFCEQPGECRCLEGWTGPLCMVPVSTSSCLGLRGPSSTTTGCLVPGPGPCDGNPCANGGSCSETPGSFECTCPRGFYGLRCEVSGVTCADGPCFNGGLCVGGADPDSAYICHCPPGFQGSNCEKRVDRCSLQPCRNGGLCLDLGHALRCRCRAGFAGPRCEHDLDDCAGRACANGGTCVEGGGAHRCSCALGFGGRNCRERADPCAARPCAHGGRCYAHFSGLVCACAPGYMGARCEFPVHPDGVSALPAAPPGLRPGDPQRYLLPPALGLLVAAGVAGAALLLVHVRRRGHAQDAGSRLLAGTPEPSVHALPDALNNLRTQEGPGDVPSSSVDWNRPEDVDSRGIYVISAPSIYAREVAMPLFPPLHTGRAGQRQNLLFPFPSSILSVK

T2: DLL1 (ACRO, DL1-H52H8) (human, UniProt O00548 18-540)
T2 construct: Bought; also called human DLL1
T2 sequence: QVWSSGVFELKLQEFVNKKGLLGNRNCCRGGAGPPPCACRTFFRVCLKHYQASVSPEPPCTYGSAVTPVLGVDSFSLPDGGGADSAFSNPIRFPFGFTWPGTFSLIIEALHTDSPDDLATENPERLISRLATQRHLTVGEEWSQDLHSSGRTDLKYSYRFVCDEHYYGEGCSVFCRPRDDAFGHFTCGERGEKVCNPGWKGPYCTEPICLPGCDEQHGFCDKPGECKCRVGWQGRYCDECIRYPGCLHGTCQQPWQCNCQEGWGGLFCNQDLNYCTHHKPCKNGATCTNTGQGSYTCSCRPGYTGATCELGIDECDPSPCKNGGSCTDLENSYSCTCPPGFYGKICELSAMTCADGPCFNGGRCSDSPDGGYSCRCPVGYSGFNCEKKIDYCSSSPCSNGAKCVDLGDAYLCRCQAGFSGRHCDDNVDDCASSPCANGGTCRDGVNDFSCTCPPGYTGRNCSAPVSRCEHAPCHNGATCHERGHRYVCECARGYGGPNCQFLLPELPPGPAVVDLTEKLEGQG


Legend:
[1] = biological target: T3, CD3 on Jurkat cells (human); test: flow cytometry, Jurkat cells
T3 construct: whole, on cells; also called CD3-expressing Jurkat cells

[2] = biological target: T1, cynomolgus monkey DLL3 on CHO-s cells; test: flow cytometry, cynoDLL3/CHO-s cells
Experimental: The plates were centrifuged at 300 g for 5 min, and the supernatant was removed. Different concentrations of test antibodies were added at 100 μL/well. The plates were incubated in the dark in a refrigerator at 4° C. for 1 h. After 3 centrifugal washes at 300 g, working concentrations of APC anti-human IgG Fc (BioLegend, 410712) or PE F(ab′)2-goat anti-human IgG (invitrogen, H10104) were added. The plates were incubated in the dark in a refrigerator at 4° C. for 40 min. After 3 centrifugal washes at 300 g, the geometric mean fluorescence intensity was measured on an Invitrogen flow cytometer, and the EC50 values for the binding of the antibodies to DLL3-expressing cells were calculated.

[3] = biological target: T4, hDLL3 (ECD)-strep twin, biotinylated (human, UniProt Q9NYJ7 27-492, biotinylated); test: ELISA, biotinylated antigen on streptavidin
T4 construct: The entry carries a signal peptide (marked only by a dotted line); also called Biotinylated DLL3 antigen; human DLL3 protein
Experimental: (§1) Streptavidin (abcam, ab136200, 1 μg/mL) was plated at 100 μL/well, and the plates were incubated overnight at 4° C. The plates were washed 3 times with 250 μL of PBST solution (PBS containing 0.1% Tween 20) per well. The plates were blocked with 250 μL of 5% milk per well at 37° C. for 2 h. The plates were washed 3 times with 250 μL of PBST solution per well. Biotinylated DLL3 antigen (1 μg/mL) (SEQ ID NO: 9) was added, and the plates were incubated at 37° C. for 1 h. The plates were washed 3 times with 250 μL of PBST solution per well. Antibodies (maximum concentration 400 nM, serially diluted 4-fold) were formulated, and incubation was performed at 37° C. for 1 h. The plates were washed 6 times with 250 μL of PBST solution per well. […] The plates were washed 6 times with 250 μL of PBST solution per well. TMB (KPL, 5120-0077) substrate solution was added at 100 μL/well, and color development was performed at room temperature for 5-10 min. 1 M H₂SO₄ was added at 100 μL/well to stop the color development, and microplate reader (Molecular Devices, VERSA max) readings at 450 nm were taken.

[4] = biological target: T4, hDLL3 (ECD)-strep twin, biotinylated; test: ELISA, biotinylated antigen on streptavidin, OD450
Experimental: as §1

[5] = biological target: T2, DLL1 (ACRO, DL1-H52H8); test: ELISA, DLL1 coated at 1 µg/mL, detection with anti-human IgG (H+L)-HRP, OD450
Experimental: as §1, with “DLL1 (ACRO, DL1-H52H8, 1” for “Streptavidin (abcam, ab136200, 1”, “μg/mL) and DLL4 (ACRO, DL4-H5227, 1 μg/mL) were” for “μg/mL) was”, “well. Test antibodies (maximum concentration 100 nM, serially diluted 4-fold) were” for “well. Biotinylated DLL3 antigen (1 μg/mL) (SEQ ID NO: 9) was”, “incubated” for “incubated at 37° C. for 1 h. The plates were washed 3 times with 250 μL of PBST solution per well. Antibodies (maximum concentration 400 nM, serially diluted 4-fold) were formulated, and incubation was performed”

[6] = biological target: T5, DLL4 (ACRO, DL4-H5227) (human, UniProt Q9NR61 27-524); test: ELISA, DLL4 coated at 1 µg/mL, detection with anti-human IgG (H+L)-HRP, OD450
T5 construct: Bought; also called human DLL4
Experimental: as §1, with “DLL1 (ACRO, DL1-H52H8, 1” for “Streptavidin (abcam, ab136200, 1”, “μg/mL) and DLL4 (ACRO, DL4-H5227, 1 μg/mL) were” for “μg/mL) was”, “well. Test antibodies (maximum concentration 100 nM, serially diluted 4-fold) were” for “well. Biotinylated DLL3 antigen (1 μg/mL) (SEQ ID NO: 9) was”, “incubated” for “incubated at 37° C. for 1 h. The plates were washed 3 times with 250 μL of PBST solution per well. Antibodies (maximum concentration 400 nM, serially diluted 4-fold) were formulated, and incubation was performed”

T5 sequence (Q9NR61 27-524 limits assumed): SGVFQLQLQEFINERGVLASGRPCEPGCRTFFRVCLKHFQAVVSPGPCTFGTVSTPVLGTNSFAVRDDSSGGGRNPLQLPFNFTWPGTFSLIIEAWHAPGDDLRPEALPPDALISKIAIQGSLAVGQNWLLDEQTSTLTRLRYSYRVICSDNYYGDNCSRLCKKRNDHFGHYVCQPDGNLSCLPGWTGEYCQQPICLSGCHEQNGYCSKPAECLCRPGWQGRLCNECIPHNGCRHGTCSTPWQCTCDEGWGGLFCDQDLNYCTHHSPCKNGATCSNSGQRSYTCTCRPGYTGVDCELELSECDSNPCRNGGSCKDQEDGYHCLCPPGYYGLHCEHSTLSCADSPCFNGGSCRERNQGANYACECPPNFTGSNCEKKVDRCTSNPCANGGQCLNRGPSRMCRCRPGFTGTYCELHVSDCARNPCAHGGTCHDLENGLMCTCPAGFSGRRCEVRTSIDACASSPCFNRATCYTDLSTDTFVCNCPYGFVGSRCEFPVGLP
T3 sequence (P07766 23-207, chain 1 of 4): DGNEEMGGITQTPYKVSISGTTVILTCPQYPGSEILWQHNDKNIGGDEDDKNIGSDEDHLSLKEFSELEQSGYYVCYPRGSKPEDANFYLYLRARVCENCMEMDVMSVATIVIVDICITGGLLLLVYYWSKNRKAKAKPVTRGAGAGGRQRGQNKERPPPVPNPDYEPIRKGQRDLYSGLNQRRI
T3 sequence (P09693 23-182, chain 2 of 4, further chain): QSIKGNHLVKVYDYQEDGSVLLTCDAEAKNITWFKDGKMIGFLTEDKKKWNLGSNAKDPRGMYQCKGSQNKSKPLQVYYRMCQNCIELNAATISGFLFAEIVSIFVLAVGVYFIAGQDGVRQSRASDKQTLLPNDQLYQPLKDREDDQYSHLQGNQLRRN
T3 sequence (P04234 22-171, chain 3 of 4, further chain): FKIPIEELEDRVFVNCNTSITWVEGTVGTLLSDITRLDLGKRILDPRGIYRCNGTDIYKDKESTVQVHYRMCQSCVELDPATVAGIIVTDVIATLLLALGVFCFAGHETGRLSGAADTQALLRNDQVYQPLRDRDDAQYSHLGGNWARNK
T3 sequence (P20963 22-164, chain 4 of 4, further chain): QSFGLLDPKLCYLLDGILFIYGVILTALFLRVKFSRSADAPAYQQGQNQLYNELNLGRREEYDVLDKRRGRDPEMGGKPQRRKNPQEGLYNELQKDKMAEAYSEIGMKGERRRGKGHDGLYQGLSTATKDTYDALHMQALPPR

| EC50 [1] | EC50 [2] | EC50 [3] | Emax [4] | binding result [5] | Binder | binding result [6] |
| --- | --- | --- | --- | --- | --- | --- |
| 7.74 nM | 5.01 nM | 0.11 nM | 0.45 | no binding | hu110-S107E-hot Ig (bispecific antibody, Format 1 (Hot-Ig, Titin/Obscurin-replaced DLL3 Fab), DLL3 x CD3) light 1: NIVMTQSPKSLAVSLGERATINCKASENVGIFVSWYQQKPGQSPKLLIYGASNRYTGVPDRFSGSGSATDFTLTISSLQAEDVADYYCGQSHSYPLTFGQGTKLEIKGGGGSSGAPRFLTRPKASVVSVGKDATLSCQIVGNPFPQVSWEKDKQPVTAGVRFRLAQDGDLYRLKILDLQLSDSGQYVCRARNAHGEAFACLGLQVDAEA heavy 1: EVQLVQSGAEVKKPGASVKVSCKTSGYTFTDYYMNWVRQAPGQSLEWMGIINPYQGGTSYTQKFKGRVTITVDKSASTAYMELSSLRSEDTAVYYCARHFYDSSYLTYSTMDYWGQGTTVTVSSGGGGSGIPPKIECLPIDISIDEGKVLTVASAFTGEPTPEVTWSTGGRKIHSQEQGRFHIENTDDSTTLTIKDVQKQDGGLYTLTLRNEFGSDSATVNIHIRSIDKTHTCPPCPAPEAAGGPSVFLFPPKPKDTLMISRTPEVTCVVVDVSHEDPEVKFNWYVDGVEVHNAKTKPREEQYNSTYRVVSVLTVLHQDWLNGKEYKCKVSNKALPAPIEKTISKAKGQPREPQVCTLPPSREEMTKNQVSLSCAVKGFYPSDIAVEWESNGQPENNYKTTPPVLDSDGSFFLVSKLTVDKSRWQQGNVFSCSVMHEALHNHYTQKSLSLSPGK heavy 2: not shown light 2: not shown | no binding (tested: log[antibody, nM] 2 (100 nM)) |
| 3.27 nM | 4.92 nM | 0.08 nM | 0.48 | no binding | hu110-I2C-hot Ig (bispecific antibody, Format 1 (Hot-Ig, Titin/Obscurin-replaced DLL3 Fab), DLL3 x CD3) light 1: NIVMTQSPKSLAVSLGERATINCKASENVGIFVSWYQQKPGQSPKLLIYGASNRYTGVPDRFSGSGSATDFTLTISSLQAEDVADYYCGQSHSYPLTFGQGTKLEIKGGGGSSGAPRFLTRPKASVVSVGKDATLSCQIVGNPFPQVSWEKDKQPVTAGVRFRLAQDGDLYRLKILDLQLSDSGQYVCRARNAHGEAFACLGLQVDAEA heavy 1: EVQLVQSGAEVKKPGASVKVSCKTSGYTFTDYYMNWVRQAPGQSLEWMGIINPYQGGTSYTQKFKGRVTITVDKSASTAYMELSSLRSEDTAVYYCARHFYDSSYLTYSTMDYWGQGTTVTVSSGGGGSGIPPKIECLPIDISIDEGKVLTVASAFTGEPTPEVTWSTGGRKIHSQEQGRFHIENTDDSTTLTIKDVQKQDGGLYTLTLRNEFGSDSATVNIHIRSIDKTHTCPPCPAPEAAGGPSVFLFPPKPKDTLMISRTPEVTCVVVDVSHEDPEVKFNWYVDGVEVHNAKTKPREEQYNSTYRVVSVLTVLHQDWLNGKEYKCKVSNKALPAPIEKTISKAKGQPREPQVCTLPPSREEMTKNQVSLSCAVKGFYPSDIAVEWESNGQPENNYKTTPPVLDSDGSFFLVSKLTVDKSRWQQGNVFSCSVMHEALHNHYTQKSLSLSPGK heavy 2: not shown light 2: not shown | no binding (tested: log[antibody, nM] 2 (100 nM)) |
| 3.83 nM | 4.92 nM | 0.07 nM | 0.48 | no binding | hu110-I2C-Y body (bispecific antibody, Format 2 (Y body: DLL3 Fab-Fc hole + CD3 scFv-Fc knob)) light: NIVMTQSPKSLAVSLGERATINCKASENVGIFVSWYQQKPGQSPKLLIYGASNRYTGVPDRFSGSGSATDFTLTISSLQAEDVADYYCGQSHSYPLTFGQGTKLEIKRTVAAPSVFIFPPSDEQLKSGTASVVCLLNNFYPREAKVQWKVDNALQSGNSQESVTEQDSKDSTYSLSSTLTLSKADYEKHKVYACEVTHQGLSSPVTKSFNRGEC heavy: EVQLVQSGAEVKKPGASVKVSCKTSGYTFTDYYMNWVRQAPGQSLEWMGIINPYQGGTSYTQKFKGRVTITVDKSASTAYMELSSLRSEDTAVYYCARHFYDSSYLTYSTMDYWGQGTTVTVSSASTKGPSVFPLAPSSKSTSGGTAALGCLVKDYFPEPVTVSWNSGALTSGVHTFPAVLQSSGLYSLSSVVTVPSSSLGTQTYICNVNHKPSNTKVDKKVEPKSCDKTHTCPPCPAPEAAGGPSVFLFPPKPKDTLMISRTPEVTCVVVDVSHEDPEVKFNWYVDGVEVHNAKTKPREEQYNSTYRVVSVLTVLHQDWLNGKEYKCKVSNKALPAPIEKTISKAKGQPREPQVCTLPPSREEMTKNQVSLSCAVKGFYPSDIAVEWESNGQPENNYKTTPPVLDSDGSFFLVSKLTVDKSRWQQGNVFSCSVMHEALHNHYTQKSLSLSPGK not shown | no binding (tested: log[antibody, nM] 2 (100 nM)) |
